Patent US20240158496A1 (Johns Hopkins, published 2024)

Columns and labels:
[1] = target: T1, recombinant human (rh) CEACAM-1 (human, UniProt P13688 35-428, limits assumed); experiment: protein A-agarose pull-down, CEACAM1 immunoblot
T1 construct: Recombinant protein used in the in vitro protein A pull-down
T1 sequence (looked up): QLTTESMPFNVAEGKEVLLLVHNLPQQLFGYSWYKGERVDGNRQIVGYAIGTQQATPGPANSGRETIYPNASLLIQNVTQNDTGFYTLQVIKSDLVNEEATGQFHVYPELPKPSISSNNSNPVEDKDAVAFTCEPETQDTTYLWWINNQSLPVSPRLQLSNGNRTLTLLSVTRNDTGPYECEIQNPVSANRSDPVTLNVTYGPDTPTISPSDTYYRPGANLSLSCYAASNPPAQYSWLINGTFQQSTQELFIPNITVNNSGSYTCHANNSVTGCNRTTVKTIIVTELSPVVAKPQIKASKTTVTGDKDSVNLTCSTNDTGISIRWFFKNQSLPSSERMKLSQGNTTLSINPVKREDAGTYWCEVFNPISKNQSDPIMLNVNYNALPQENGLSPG
Experimental: The precipitated complexes were washed with immunoprecipitation buffer, re-suspended in NuPAGE sample buffer with reducing agent, boiled, resolved on a Bis-Tris Criterion XT Gel system and transferred to a PVDF membrane. Membranes were immunoblotted with primary antibodies [CEACAM1 (D1P4T); TIM3 (D5D5R™)] overnight, washed, incubated with secondary antibodies and visualized by Amersham ECL Western Blotting Detection Reagents. […] This assay is also used to evaluate the binding of any antibody-ligand trap comprising a ligand-binding sequence of a ligand-binding sequence of TIM-3 ectodomain(TIM-3ecd) to rh CEACAM-1.

[2] = target: T2, CEACAM-1 on co-stimulated human T cells (human, UniProt P13688 35-526); experiment: protein A-agarose immunoprecipitation of lysates of co-stimulated human PBMC treated for 6 d, CEACAM1 immunoblot
T2 construct: whole, on cells; Endogenous protein
T2 sequence (looked up): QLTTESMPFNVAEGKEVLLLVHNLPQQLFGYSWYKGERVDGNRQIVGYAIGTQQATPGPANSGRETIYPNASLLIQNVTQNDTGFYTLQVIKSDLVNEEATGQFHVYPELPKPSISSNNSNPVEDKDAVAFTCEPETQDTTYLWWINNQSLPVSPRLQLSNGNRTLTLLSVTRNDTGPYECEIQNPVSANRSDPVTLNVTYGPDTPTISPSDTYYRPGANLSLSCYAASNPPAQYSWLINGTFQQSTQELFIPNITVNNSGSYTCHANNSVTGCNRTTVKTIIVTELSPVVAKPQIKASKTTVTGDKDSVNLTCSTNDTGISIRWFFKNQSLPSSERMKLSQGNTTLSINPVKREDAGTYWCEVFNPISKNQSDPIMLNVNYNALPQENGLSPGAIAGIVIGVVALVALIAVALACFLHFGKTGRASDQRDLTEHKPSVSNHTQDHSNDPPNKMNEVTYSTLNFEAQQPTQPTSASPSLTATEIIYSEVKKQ
Experimental: The precipitated complexes were washed with immunoprecipitation buffer, re-suspended in NuPAGE sample buffer with reducing agent, boiled, resolved on a Bis-Tris Criterion XT Gel system and transferred to a PVDF membrane. Membranes were immunoblotted with primary antibodies [CEACAM1 (D1P4T); TIM3 (D5D5R™)] overnight, washed, incubated with secondary antibodies and visualized by Amersham ECL Western Blotting Detection Reagents.

- binding result [2]: no binding
B1: α-PD1 mAb (nivolumab) (antibody)
heavy: not shown
light: not shown
notes: Parent antibody used as a control; also called α-PD1 antibody (nivolumab); a-PD1 mAb (nivolumab)
- binding result [1]: no binding (tested: 10 µg antibody with 5 µg rhCEACAM-1)
